Experimental data: paper doi:10.1101/2020.10.04.325654
pEC50: −log10 of the molar value. Like-named read-outs stand apart in the source and are kept apart here.

Legend:
Assay in all cases: ELISA
[1] = target: His-tagged ASH/RhoGAP domain of OCRL (536aa-901aa) (human) (UniProt Q01968)
[2] = target: His-tagged ASH/RhoGAP domain of OCRL (536aa-901aa) (human) (UniProt Q01968); remark: listed apart in the source
[3] = target: His-tagged ASH/RhoGAP domain of OCRL (536aa-901aa) (human) (UniProt Q01968); remark: listed apart in the source

His-tagged ASH/RhoGAP domain of OCRL (536aa-901aa) (human), sequence (Q01968 536-901): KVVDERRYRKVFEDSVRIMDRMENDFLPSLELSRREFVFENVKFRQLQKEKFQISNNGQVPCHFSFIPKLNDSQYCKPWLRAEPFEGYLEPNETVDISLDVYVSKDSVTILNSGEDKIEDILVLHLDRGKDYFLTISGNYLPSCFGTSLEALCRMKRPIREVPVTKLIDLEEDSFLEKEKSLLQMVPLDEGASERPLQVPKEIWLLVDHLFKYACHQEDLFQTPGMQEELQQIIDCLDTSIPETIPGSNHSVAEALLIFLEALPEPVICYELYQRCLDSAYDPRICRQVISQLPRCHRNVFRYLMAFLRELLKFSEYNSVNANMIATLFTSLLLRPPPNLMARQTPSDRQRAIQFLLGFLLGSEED

Row | Substance | pEC50 [1] | pEC50 [2] | pEC50 [3]
1 | GST-SdhA-CBM2 (from UniProt Q6RCQ3 1029-1260) (domain or fragment) | 7.09 | 7.06 | –
2 | GST-SdhA-CBM2A (from UniProt Q6RCQ3 1029-1080) (domain or fragment) | 7.57 | – | 8.09
